{
  "source": "the supplement of paper PMC9112550",
  "about": "“Optimization of the antimicrobial peptide Bac7 by deep mutational scanning” (BMC Biology, 2022);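 note: peptides expressed intracellularly from a pBAD plasmid library in pooled LB shake-flask culture, induced with 0.3% L-arabinose, DNA abundance read by NGS, three biological replicates, DESeq2 with apeglm shrinkage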",
  "data": [
    {"system": "Escherichia coli TOP10", "experiment": "shrunken log2 fold change of peptide-encoding DNA abundance (4.5 h post-induction vs induction); higher = less antimicrobial activity (less host growth inhibition)", "details": "time post-induction: 4.5 h; library: site-saturation at positions 5, 18, 19, 20", "values": [
      {"sequence": "RRIRDRPPRLPRPRPRPCATPRP", "shrunken log2 fold change": 0.00509},
      {"sequence": "RRIRVRPPRLPRPRPRPTCQPRP", "shrunken log2 fold change": -0.035},
      {"sequence": "RRIRARPPRLPRPRPRPVDCPRP", "shrunken log2 fold change": 0.26},
      {"sequence": "RRIRCRPPRLPRPRPRPDPIPRP", "shrunken log2 fold change": -0.0573},
      {"sequence": "RRIRTRPPRLPRPRPRPHNEPRP", "shrunken log2 fold change": -0.581},
      {"sequence": "RRIRDRPPRLPRPRPRPIPYPRP", "shrunken log2 fold change": -0.0147},
      {"sequence": "RRIRMRPPRLPRPRPRPTHYPRP", "shrunken log2 fold change": 0.226},
      {"sequence": "RRIRMRPPRLPRPRPRPPHRPRP", "shrunken log2 fold change": 0.567},
      {"sequence": "RRIRIRPPRLPRPRPRPVICPRP", "shrunken log2 fold change": -0.063},
      {"sequence": "RRIRIRPPRLPRPRPRPFHGPRP", "shrunken log2 fold change": -0.146},
      {"sequence": "RRIRMRPPRLPRPRPRPEGGPRP", "shrunken log2 fold change": 1.33},
      {"sequence": "RRIRDRPPRLPRPRPRPPQWPRP", "shrunken log2 fold change": 0.568},
      {"sequence": "RRIRDRPPRLPRPRPRPSGVPRP", "shrunken log2 fold change": 0.119},
      {"sequence": "RRIRDRPPRLPRPRPRPGNNPRP", "shrunken log2 fold change": -0.125},
      {"sequence": "RRIRMRPPRLPRPRPRPLYTPRP", "shrunken log2 fold change": -0.116},
      {"sequence": "RRIRRRPPRLPRPRPRPEVHPRP", "shrunken log2 fold change": 0.648},
      {"sequence": "RRIRCRPPRLPRPRPRPSWNPRP", "shrunken log2 fold change": -0.68},
      {"sequence": "RRIRHRPPRLPRPRPRPSRDPRP", "shrunken log2 fold change": 0.234},
      {"sequence": "RRIRTRPPRLPRPRPRPDDGPRP", "shrunken log2 fold change": 0.02},
      {"sequence": "RRIRKRPPRLPRPRPRPPLFPRP", "shrunken log2 fold change": 0.321},
      {"sequence": "RRIRHRPPRLPRPRPRPFDEPRP", "shrunken log2 fold change": -0.173},
      {"sequence": "RRIRWRPPRLPRPRPRPEDFPRP", "shrunken log2 fold change": 0.0629},
      {"sequence": "RRIRDRPPRLPRPRPRPNTWPRP", "shrunken log2 fold change": 0.23},
      {"sequence": "RRIRSRPPRLPRPRPRPGLKPRP", "shrunken log2 fold change": 0.14},
      {"sequence": "RRIRMRPPRLPRPRPRPHPEPRP", "shrunken log2 fold change": 0.414},
      {"sequence": "RRIRRRPPRLPRPRPRPMKMPRP", "shrunken log2 fold change": 0.18},
      {"sequence": "RRIRPRPPRLPRPRPRPNFDPRP", "shrunken log2 fold change": -0.0128},
      {"sequence": "RRIRVRPPRLPRPRPRPHALPRP", "shrunken log2 fold change": -0.129},
      {"sequence": "RRIRHRPPRLPRPRPRPCKCPRP", "shrunken log2 fold change": -0.174},
      {"sequence": "RRIRERPPRLPRPRPRPGLQPRP", "shrunken log2 fold change": 0.103},
      {"sequence": "RRIRTRPPRLPRPRPRPQPLPRP", "shrunken log2 fold change": 0.284},
      {"sequence": "RRIRDRPPRLPRPRPRPAMWPRP", "shrunken log2 fold change": 1.24},
      {"sequence": "RRIRIRPPRLPRPRPRPAHLPRP", "shrunken log2 fold change": 0.117},
      {"sequence": "RRIRVRPPRLPRPRPRPAWLPRP", "shrunken log2 fold change": 0.186},
      {"sequence": "RRIRFRPPRLPRPRPRPKQCPRP", "shrunken log2 fold change": -0.0712},
      {"sequence": "RRIRWRPPRLPRPRPRPYRHPRP", "shrunken log2 fold change": -0.0902},
      {"sequence": "RRIRERPPRLPRPRPRPYIVPRP", "shrunken log2 fold change": 0.00789},
      {"sequence": "RRIRRRPPRLPRPRPRPRYYPRP", "shrunken log2 fold change": -0.438},
      {"sequence": "RRIRFRPPRLPRPRPRPPQIPRP", "shrunken log2 fold change": 0.241},
      {"sequence": "RRIRERPPRLPRPRPRPRVYPRP", "shrunken log2 fold change": 0.000497},
      {"sequence": "RRIRMRPPRLPRPRPRPLHRPRP", "shrunken log2 fold change": 0.304},
      {"sequence": "RRIRCRPPRLPRPRPRPYRNPRP", "shrunken log2 fold change": 0.0132},
      {"sequence": "RRIRNRPPRLPRPRPRPYTGPRP", "shrunken log2 fold change": -0.0137},
      {"sequence": "RRIRHRPPRLPRPRPRPEWVPRP", "shrunken log2 fold change": -0.086},
      {"sequence": "RRIRNRPPRLPRPRPRPQAFPRP", "shrunken log2 fold change": -0.00429},
      {"sequence": "RRIRPRPPRLPRPRPRPKKLPRP", "shrunken log2 fold change": -0.0688},
      {"sequence": "RRIRHRPPRLPRPRPRPIHVPRP", "shrunken log2 fold change": 0.0364},
      {"sequence": "RRIRGRPPRLPRPRPRPMNRPRP", "shrunken log2 fold change": 0.022},
      {"sequence": "RRIRDRPPRLPRPRPRPSARPRP", "shrunken log2 fold change": 0.465},
      {"sequence": "RRIRHRPPRLPRPRPRPGSKPRP", "shrunken log2 fold change": -0.00664}
    ]}
  ]
}
